This data set deals with the molecule itself. The data set can be described thus: oligomer pelleting by centrifugation with UV absorbance of the supernatant.

B1: RAGE VC1 (tandem V and C1 domains of the receptor for advanced glycation end products) (domain or fragment, human)
chain: AQNITARIGEPLVLKCKGAPKKPPQRLEWKLNTGRTEAWKVLSPQGGGPWDSVARVLPNGSLFLPAVGIQDEGIFRCQAMNRNGKETKSNYRVRVYQIPGKPEIVDSASELTAGVPNKVGTCVSEGSYPAGTLSWHLDGKPLVPNEKGVSVKEQTRRHPETGLFTLQSELMVTPARGGDPRPTFSCSFSPGLPRHRALRTAPIQPRVWEPVPLEEVQL
On to B1, for which binding was put at a Kd of 3.8 ± 1.3 µM.

The values above are taken from publication PMC4250094 (Structure (London, England : 1993), 2010).
